Assay results published in PMC3763809.

Columns and labels:
[1] = target: H3(1-132)-LEEGLG nucleosome, first Glu of the tail to Ala (Drosophila | human) (UniProt P02299); assay: ITC
[2] = target: H3(1-132)-LEEGLG nucleosome, second Glu of the tail to Ala (Drosophila | human) (UniProt P02299); assay: ITC

Sequence of CENP-C central region, CENP-C(444-537) (Q03188 444-537): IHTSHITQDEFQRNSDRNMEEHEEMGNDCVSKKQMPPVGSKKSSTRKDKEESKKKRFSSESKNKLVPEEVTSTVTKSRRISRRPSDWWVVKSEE

factor of change of Kd against the H3(1-132)-LEEGLG nucleosome [1]: 3 fold
factor of change of Kd against the H3(1-132)-LEEGLG nucleosome [2]: 10 fold
Substance: CENP-C central region, CENP-C(444-537) (from UniProt Q03188 444-537) (domain or fragment)
